Assays:
[1] = substrate: O=c1cc(-c2ccc(O)c(O)c2)oc2cc(O)c([C@@H]3O[C@H](CO)[C@@H](O)[C@H](O)[C@H]3O)c(O)c12; experiment: O-methyltransferase assay, UPLC, Michaelis-Menten fit; type: biochemical, Isatis tinctoria; conditions: 480 μM SAM, Tris-HCl pH 8.0, 45 °C
Excerpt: (§1) O-methyltransferase assay, UPLC, Michaelis-Menten fit on IiOMT1

[2] = substrate: O=c1cc(-c2ccc(O)c(O)c2)oc2cc(O)cc(O)c12; experiment: as above; type: biochemical, Isatis tinctoria; conditions: 480 μM SAM, Tris-HCl pH 8.0, 45 °C
Excerpt: as §1

B1: IiOMT1 (Isatis tinctoria) (protein)
chain: MATTTTEATKTSTNGEDKQSQNLRHQEVGHKSLLQSDDLYQYILETSVYPREPESMKELREVTAKHPWNIMTTSADEGQFLNMLIKLINAKNTMEIGVYTGYSLLATALALPEDGKILAMDVNRENYELGLPIIEKAGVAHKIDFREGPALPVLDQLVADEKNHGTYDFIFVDADKDNYINYHKRLIDLVKVGGVIGYDNTLWNGSVVAAPDAPMRKYVRYYRDFVLELNKALAADPRIEICMLPVGDGITICRRIN
notes: N-terminal His6-SUMO tag kept (pE-SUMO), E. coli Rosetta (DE3), Ni-NTA
[1]
  Km: 75.56 ± 8.21 µM
  kcat: 0.304 s⁻¹
  kcat/Km: 4040 M⁻¹ s⁻¹
[2]
  Km: 113.5 ± 10.41 µM
  kcat: 0.413 s⁻¹
  kcat/Km: 3650 M⁻¹ s⁻¹
